From US20140087995A1 (published 2014)
Numbered stars: 1 amine (or outer) side, 2 acyl side, 3 side chain; on linkers, the order of the positions; unused ones are H or OH. Bridge positions count the residues as written; N and C are the ends. Square brackets hold non-standard residues; d marks the D form. Side chains are listed from the residue outwards. Ends that are not written are not given here. * marks the point of attachment. C20 diacid = O=C(O)CCCCCCCCCCCCCCCCCCC(=O)*; γGlu = O=C(O)[C@H](CCC(=O)[*:2])N[*:1]

T1: human amylin receptor (amylin 3(a) receptor: human calcitonin receptor coexpressed with RAMP-3) (human, UniProt P30988 25-474; O60896 24-148)
T1 sequence (looked up) 1: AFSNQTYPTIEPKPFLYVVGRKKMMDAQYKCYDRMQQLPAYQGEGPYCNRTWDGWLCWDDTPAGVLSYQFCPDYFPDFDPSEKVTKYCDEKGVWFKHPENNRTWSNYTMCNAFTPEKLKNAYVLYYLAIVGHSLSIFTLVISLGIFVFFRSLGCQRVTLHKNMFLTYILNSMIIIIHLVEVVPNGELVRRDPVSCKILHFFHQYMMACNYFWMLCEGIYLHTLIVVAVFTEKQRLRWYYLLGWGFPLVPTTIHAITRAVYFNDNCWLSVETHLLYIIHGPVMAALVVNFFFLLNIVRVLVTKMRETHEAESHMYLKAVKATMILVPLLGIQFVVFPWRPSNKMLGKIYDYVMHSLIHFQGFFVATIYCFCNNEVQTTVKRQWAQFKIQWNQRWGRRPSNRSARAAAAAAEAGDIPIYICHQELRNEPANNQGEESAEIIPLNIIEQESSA
T1 sequence (looked up) 2: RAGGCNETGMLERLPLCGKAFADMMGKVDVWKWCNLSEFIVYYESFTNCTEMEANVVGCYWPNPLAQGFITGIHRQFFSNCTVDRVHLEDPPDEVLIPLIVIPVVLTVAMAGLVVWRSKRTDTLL

T2: human calcitonin receptor (human, UniProt P30988 25-474)
T2 sequence (looked up): T1 sequence (looked up) 1

B1: N^ε1-[(4S)-4-carboxy-4-(19-carboxynonadecanoylamino)butanoyl]-[His14,Arg17,Pro21,Pro27,Arg34]-h-amylin (peptide)
peptide: K([γGlu-C20 diacid])CNTATCATQRLAHFLRHSSPNFGAIPSSTNVGRNTY-NH2
modifications: disulfide 2-7; N-terminus assumed
SMILES: CC[C@H](C)[C@H](NC(=O)[C@H](C)NC(=O)CNC(=O)[C@H](Cc1ccccc1)NC(=O)[C@H](CC(N)=O)NC(=O)[C@@H]1CCCN1C(=O)[C@H](CO)NC(=O)[C@H](CO)NC(=O)[C@H](Cc1c[nH]cn1)NC(=O)[C@H](CCCNC(=N)N)NC(=O)[C@H](CC(C)C)NC(=O)[C@H](Cc1ccccc1)NC(=O)[C@H](Cc1c[nH]cn1)NC(=O)[C@H](C)NC(=O)[C@H](CC(C)C)NC(=O)[C@H](CCCNC(=N)N)NC(=O)[C@H](CCC(N)=O)NC(=O)[C@@H](NC(=O)[C@H](C)NC(=O)[C@@H]1CSSC[C@H](NC(=O)[C@@H](N)CCCCNC(=O)CC[C@H](NC(=O)CCCCCCCCCCCCCCCCCCC(=O)O)C(=O)O)C(=O)N[C@@H](CC(N)=O)C(=O)N[C@@H]([C@@H](C)O)C(=O)N[C@@H](C)C(=O)N[C@@H]([C@@H](C)O)C(=O)N1)[C@@H](C)O)C(=O)N1CCC[C@H]1C(=O)N[C@@H](CO)C(=O)N[C@@H](CO)C(=O)N[C@H](C(=O)N[C@@H](CC(N)=O)C(=O)N[C@H](C(=O)NCC(=O)N[C@@H](CCCNC(=N)N)C(=O)N[C@@H](CC(N)=O)C(=O)N[C@H](C(=O)N[C@@H](Cc1ccc(O)cc1)C(N)=O)[C@@H](C)O)C(C)C)[C@@H](C)O
notes: also called compound 85
B2: N^ε1-[(4S)-4-carboxy-4-[[(4S)-4-carboxy-4-(19-carboxynonadecanoylamino)butanoyl]amino]butanoyl]-[Arg17,Pro21,Pro27,Pro31,Pro34,Arg35]-h-amylin (peptide)
peptide: K([γGlu-γGlu-C20 diacid])CNTATCATQRLANFLRHSSPNFGAIPSSTPVGPRTY-NH2
modifications: disulfide 2-7; N-terminus assumed
SMILES: CC[C@H](C)[C@H](NC(=O)[C@H](C)NC(=O)CNC(=O)[C@H](Cc1ccccc1)NC(=O)[C@H](CC(N)=O)NC(=O)[C@@H]1CCCN1C(=O)[C@H](CO)NC(=O)[C@H](CO)NC(=O)[C@H](Cc1c[nH]cn1)NC(=O)[C@H](CCCNC(=N)N)NC(=O)[C@H](CC(C)C)NC(=O)[C@H](Cc1ccccc1)NC(=O)[C@H](CC(N)=O)NC(=O)[C@H](C)NC(=O)[C@H](CC(C)C)NC(=O)[C@H](CCCNC(=N)N)NC(=O)[C@H](CCC(N)=O)NC(=O)[C@@H](NC(=O)[C@H](C)NC(=O)[C@@H]1CSSC[C@H](NC(=O)[C@@H](N)CCCCNC(=O)CC[C@H](NC(=O)CC[C@H](NC(=O)CCCCCCCCCCCCCCCCCCC(=O)O)C(=O)O)C(=O)O)C(=O)N[C@@H](CC(N)=O)C(=O)N[C@@H]([C@@H](C)O)C(=O)N[C@@H](C)C(=O)N[C@@H]([C@@H](C)O)C(=O)N1)[C@@H](C)O)C(=O)N1CCC[C@H]1C(=O)N[C@@H](CO)C(=O)N[C@@H](CO)C(=O)N[C@H](C(=O)N1CCC[C@H]1C(=O)N[C@H](C(=O)NCC(=O)N1CCC[C@H]1C(=O)N[C@@H](CCCNC(=N)N)C(=O)N[C@H](C(=O)N[C@@H](Cc1ccc(O)cc1)C(N)=O)[C@@H](C)O)C(C)C)[C@@H](C)O
B3: N^ε1-[(4S)-4-carboxy-4-(19-carboxynonadecanoylamino)butanoyl]-[His14,Arg17,Pro21,Pro27,His34]-h-amylin (peptide)
peptide: K([γGlu-C20 diacid])CNTATCATQRLAHFLRHSSPNFGAIPSSTNVGHNTY-NH2
modifications: disulfide 2-7; N-terminus assumed
SMILES: CC[C@H](C)[C@H](NC(=O)[C@H](C)NC(=O)CNC(=O)[C@H](Cc1ccccc1)NC(=O)[C@H](CC(N)=O)NC(=O)[C@@H]1CCCN1C(=O)[C@H](CO)NC(=O)[C@H](CO)NC(=O)[C@H](Cc1c[nH]cn1)NC(=O)[C@H](CCCNC(=N)N)NC(=O)[C@H](CC(C)C)NC(=O)[C@H](Cc1ccccc1)NC(=O)[C@H](Cc1c[nH]cn1)NC(=O)[C@H](C)NC(=O)[C@H](CC(C)C)NC(=O)[C@H](CCCNC(=N)N)NC(=O)[C@H](CCC(N)=O)NC(=O)[C@@H](NC(=O)[C@H](C)NC(=O)[C@@H]1CSSC[C@H](NC(=O)[C@@H](N)CCCCNC(=O)CC[C@H](NC(=O)CCCCCCCCCCCCCCCCCCC(=O)O)C(=O)O)C(=O)N[C@@H](CC(N)=O)C(=O)N[C@@H]([C@@H](C)O)C(=O)N[C@@H](C)C(=O)N[C@@H]([C@@H](C)O)C(=O)N1)[C@@H](C)O)C(=O)N1CCC[C@H]1C(=O)N[C@@H](CO)C(=O)N[C@@H](CO)C(=O)N[C@H](C(=O)N[C@@H](CC(N)=O)C(=O)N[C@H](C(=O)NCC(=O)N[C@@H](Cc1c[nH]cn1)C(=O)N[C@@H](CC(N)=O)C(=O)N[C@H](C(=O)N[C@@H](Cc1ccc(O)cc1)C(N)=O)[C@@H](C)O)C(C)C)[C@@H](C)O
notes: also called compound 81
B4: N^ε1-[(4S)-4-carboxy-4-[[(4S)-4-carboxy-4-(19-carboxynonadecanoylamino)butanoyl]amino]butanoyl]-[D-Asp14,Arg17,Pro21,Pro27,Arg35]-h-amylin (peptide)
peptide: K([γGlu-γGlu-C20 diacid])CNTATCATQRLA[dD]FLRHSSPNFGAIPSSTNVGSRTY-NH2
modifications: disulfide 2-7; N-terminus assumed
SMILES: CC[C@H](C)[C@H](NC(=O)[C@H](C)NC(=O)CNC(=O)[C@H](Cc1ccccc1)NC(=O)[C@H](CC(N)=O)NC(=O)[C@@H]1CCCN1C(=O)[C@H](CO)NC(=O)[C@H](CO)NC(=O)[C@H](Cc1c[nH]cn1)NC(=O)[C@H](CCCNC(=N)N)NC(=O)[C@H](CC(C)C)NC(=O)[C@H](Cc1ccccc1)NC(=O)[C@@H](CC(=O)O)NC(=O)[C@H](C)NC(=O)[C@H](CC(C)C)NC(=O)[C@H](CCCNC(=N)N)NC(=O)[C@H](CCC(N)=O)NC(=O)[C@@H](NC(=O)[C@H](C)NC(=O)[C@@H]1CSSC[C@H](NC(=O)[C@@H](N)CCCCNC(=O)CC[C@H](NC(=O)CC[C@H](NC(=O)CCCCCCCCCCCCCCCCCCC(=O)O)C(=O)O)C(=O)O)C(=O)N[C@@H](CC(N)=O)C(=O)N[C@@H]([C@@H](C)O)C(=O)N[C@@H](C)C(=O)N[C@@H]([C@@H](C)O)C(=O)N1)[C@@H](C)O)C(=O)N1CCC[C@H]1C(=O)N[C@@H](CO)C(=O)N[C@@H](CO)C(=O)N[C@H](C(=O)N[C@@H](CC(N)=O)C(=O)N[C@H](C(=O)NCC(=O)N[C@@H](CO)C(=O)N[C@@H](CCCNC(=N)N)C(=O)N[C@H](C(=O)N[C@@H](Cc1ccc(O)cc1)C(N)=O)[C@@H](C)O)C(C)C)[C@@H](C)O
notes: Residue 14 is D-aspartic acid (printed 14d)
B5: N^ε1-[(4S)-4-carboxy-4-[[(4S)-4-carboxy-4-(19-carboxynonadecanoylamino)butanoyl]amino]butanoyl]-[Asp14,Arg17,Pro21,Pro27,Pro34,Arg35]-h-amylin (peptide)
peptide: K([γGlu-γGlu-C20 diacid])CNTATCATQRLADFLRHSSPNFGAIPSSTNVGPRTY-NH2
modifications: disulfide 2-7; N-terminus assumed
SMILES: CC[C@H](C)[C@H](NC(=O)[C@H](C)NC(=O)CNC(=O)[C@H](Cc1ccccc1)NC(=O)[C@H](CC(N)=O)NC(=O)[C@@H]1CCCN1C(=O)[C@H](CO)NC(=O)[C@H](CO)NC(=O)[C@H](Cc1c[nH]cn1)NC(=O)[C@H](CCCNC(=N)N)NC(=O)[C@H](CC(C)C)NC(=O)[C@H](Cc1ccccc1)NC(=O)[C@H](CC(=O)O)NC(=O)[C@H](C)NC(=O)[C@H](CC(C)C)NC(=O)[C@H](CCCNC(=N)N)NC(=O)[C@H](CCC(N)=O)NC(=O)[C@@H](NC(=O)[C@H](C)NC(=O)[C@@H]1CSSC[C@H](NC(=O)[C@@H](N)CCCCNC(=O)CC[C@H](NC(=O)CC[C@H](NC(=O)CCCCCCCCCCCCCCCCCCC(=O)O)C(=O)O)C(=O)O)C(=O)N[C@@H](CC(N)=O)C(=O)N[C@@H]([C@@H](C)O)C(=O)N[C@@H](C)C(=O)N[C@@H]([C@@H](C)O)C(=O)N1)[C@@H](C)O)C(=O)N1CCC[C@H]1C(=O)N[C@@H](CO)C(=O)N[C@@H](CO)C(=O)N[C@H](C(=O)N[C@@H](CC(N)=O)C(=O)N[C@H](C(=O)NCC(=O)N1CCC[C@H]1C(=O)N[C@@H](CCCNC(=N)N)C(=O)N[C@H](C(=O)N[C@@H](Cc1ccc(O)cc1)C(N)=O)[C@@H](C)O)C(C)C)[C@@H](C)O
notes: also called compound 130
B6: N^ε1-[(4S)-4-carboxy-4-[[(4S)-4-carboxy-4-(19-carboxynonadecanoylamino)butanoyl]amino]butanoyl]-[Glu14,Arg17,Pro21,Pro27,Arg35]-h-amylin (peptide)
peptide: K([γGlu-γGlu-C20 diacid])CNTATCATQRLAEFLRHSSPNFGAIPSSTNVGSRTY-NH2
modifications: disulfide 2-7; N-terminus assumed
SMILES: CC[C@H](C)[C@H](NC(=O)[C@H](C)NC(=O)CNC(=O)[C@H](Cc1ccccc1)NC(=O)[C@H](CC(N)=O)NC(=O)[C@@H]1CCCN1C(=O)[C@H](CO)NC(=O)[C@H](CO)NC(=O)[C@H](Cc1c[nH]cn1)NC(=O)[C@H](CCCNC(=N)N)NC(=O)[C@H](CC(C)C)NC(=O)[C@H](Cc1ccccc1)NC(=O)[C@H](CCC(=O)O)NC(=O)[C@H](C)NC(=O)[C@H](CC(C)C)NC(=O)[C@H](CCCNC(=N)N)NC(=O)[C@H](CCC(N)=O)NC(=O)[C@@H](NC(=O)[C@H](C)NC(=O)[C@@H]1CSSC[C@H](NC(=O)[C@@H](N)CCCCNC(=O)CC[C@H](NC(=O)CC[C@H](NC(=O)CCCCCCCCCCCCCCCCCCC(=O)O)C(=O)O)C(=O)O)C(=O)N[C@@H](CC(N)=O)C(=O)N[C@@H]([C@@H](C)O)C(=O)N[C@@H](C)C(=O)N[C@@H]([C@@H](C)O)C(=O)N1)[C@@H](C)O)C(=O)N1CCC[C@H]1C(=O)N[C@@H](CO)C(=O)N[C@@H](CO)C(=O)N[C@H](C(=O)N[C@@H](CC(N)=O)C(=O)N[C@H](C(=O)NCC(=O)N[C@@H](CO)C(=O)N[C@@H](CCCNC(=N)N)C(=O)N[C@H](C(=O)N[C@@H](Cc1ccc(O)cc1)C(N)=O)[C@@H](C)O)C(C)C)[C@@H](C)O
notes: also called compound 89

Columns and labels:
[1] = biological target: T1, human amylin receptor (amylin 3(a) …); assay: cell-based or functional assay
[2] = biological target: T2, human calcitonin receptor; assay: cell-based or functional assay

Binder | hAmylin-R funct. EC50 (pM) [1] [pM] | hCTR funct. EC50 (pM) [2] [pM] | Ratio hCT/hAmylin funct. [2]
B1 | 146 | 3880 | –
B2 | 333 | 8660 | 26
B3 | 130 | 1730 | 13.3
B4 | 383 | 100000 | –
B5 | 162 | 7280 | 44.9
B6 | 404 | 11200 | –
